How the values were obtained:
[1] = target: T1, RANK extracellular (ligand-binding) domain, Q30 to P213, His-tagged (UniProt O35305 30-213); assay: MST
T1 sequence (looked up): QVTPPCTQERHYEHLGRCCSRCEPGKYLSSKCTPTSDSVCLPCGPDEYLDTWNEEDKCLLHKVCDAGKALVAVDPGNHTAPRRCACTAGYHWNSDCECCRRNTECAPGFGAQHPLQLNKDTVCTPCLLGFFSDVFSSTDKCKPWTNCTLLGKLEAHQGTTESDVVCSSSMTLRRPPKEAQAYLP

[2] = target: T2, LGR4 extracellular (ligand-binding) domain, L62 to V464, His-tagged (UniProt A2ARI4 62-464); assay: MST
T2 sequence (looked up): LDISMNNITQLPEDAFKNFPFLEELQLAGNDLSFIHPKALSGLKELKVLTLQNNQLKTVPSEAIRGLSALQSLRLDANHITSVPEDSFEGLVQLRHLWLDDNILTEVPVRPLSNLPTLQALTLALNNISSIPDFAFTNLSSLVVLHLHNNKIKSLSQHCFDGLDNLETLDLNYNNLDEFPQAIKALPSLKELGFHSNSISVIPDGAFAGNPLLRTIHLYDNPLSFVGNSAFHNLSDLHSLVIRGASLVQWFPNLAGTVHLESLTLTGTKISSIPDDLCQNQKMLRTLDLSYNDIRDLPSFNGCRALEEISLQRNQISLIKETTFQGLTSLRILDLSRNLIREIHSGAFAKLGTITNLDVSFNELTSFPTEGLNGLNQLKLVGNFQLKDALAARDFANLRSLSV

B1: wild-type RANKL (receptor activator of nuclear factor-κB ligand) (ligand, UniProt O35235 139-316, looked up)
chain: FSGAPAMMEGSWLDVAQRGKPEAQPFAHLTINAASIPSGSHKVTLSSWYHDRGWAKISNMTLSNGKLRVNQDGFYYLYANICFRHHETSGSVPTDYLQLMVYVVKTSIKIPSSHNLMKGGSTKNWSGNSEFHFYSINVGGFFKLRAGEEISIQVSNPSLLDPDQDATYFGAFKVQDID
- Kd [1]: 33.3 nM
- Kd [2]: 409 nM

From PMC10712694 (International Journal of Molecular Medicine, 2023)
